Key:
[1] = target: T1, Anti-CD28 Fab (SEQ ID NOs: 202, 203); assay: phage ELISA on captured biotinylated Fab;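 further: wells preblocked with or without CD28 antigen, then clonal phage supernatant added briefly, washed, and bound phage read out by ELISA using HRP-linked anti-M13 antibody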
T1 construct: biotinylated and captured on neutravidin coated plates in the phage ELISA
Experimental: (§1) Clonal phage were harvested as crude supernatants and screened via standard ELISAs. […] Prior to the addition of clonal phage, wells were incubated with blocking buffer and CD28 antigen or blocking buffer alone. Without washing or aspirating, clonal phage supernatants were then added to the wells and incubated for a short time. Wells were then washed followed by detection of bound phage using a horse radish conjugated anti-M13 antibody.

[2] = target: T1, Anti-CD28 Fab (SEQ ID NOs: 202, 203); assay: phage ELISA on captured Fab, wells pre-incubated with CD28 antigen (competitor: CD28);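 further: bound clonal phage detected with an HRP-linked anti-M13 antibody, compared against wells that received blocking buffer alone without CD28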
Experimental: as §1

T1 sequence (VH, as listed by the source, chain 1 of 2): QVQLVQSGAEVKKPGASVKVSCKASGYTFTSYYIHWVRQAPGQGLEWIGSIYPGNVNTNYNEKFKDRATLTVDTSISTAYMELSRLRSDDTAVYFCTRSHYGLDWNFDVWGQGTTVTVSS
T1 sequence (VL, as listed by the source, chain 2 of 2): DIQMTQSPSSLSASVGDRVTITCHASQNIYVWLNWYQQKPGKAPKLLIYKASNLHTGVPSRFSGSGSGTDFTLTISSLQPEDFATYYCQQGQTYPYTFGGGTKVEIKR

Row | Binder | Anti-CD28 Fab signal [1] | Anti-CD28 Fab signal in the presence of CD28 [2]
1 | YCDGHQPEYMAKCL [Phage-187] | 2.14 | 0.07
2 | YCEGHAPEYMMKCI [Phage-224] | 2.06 | 0.06
3 | YCQGHLPQYIAKCL [Phage-205] | 2.09 | 0.08
4 | YCEGHADIYMQKCL [Phage-225] | 2.06 | 0.07
5 | YCSGHAPIYMAKCL [Phage-200] | 2.1 | 0.07
6 | YCSGHAPEYMAKCL [Phage-287] | 1.94 | 0.06
7 | YCAGHIEEYMWKCL [Phage-230] | 2.05 | 0.06
8 | YCAGHLPLYMEKCL [Phage-191] | 2.12 | 0.06
9 | YCEGHTAEYLQKCL [Phage-208] | 2.09 | 0.1
10 | YCDGHAEQYMEKCL [Phage-215] | 2.08 | 0.07
11 | YCDGHVGEYMQKCL [Phage-233] | 2.05 | 0.08
12 | YCAGHLPEYIDKCL [Phage-219] | 2.07 | 0.08
13 | YCAGHMPEYIDKCL [Phage-296] | 1.92 | 0.06
14 | YCAGHLPEYISKCL [Phage-188] | 2.14 | 0.08
15 | YCEGHSMQHMAKCL [Phage-217] | 2.07 | 0.08
16 | YCEGHAPEHMAKCL [Phage-214] | 2.08 | 0.1
17 | YCEGHSAEYMWKCL [Phage-213] | 2.08 | 0.09
18 | YCEGHSAEYMNKCL [Phage-226] | 2.06 | 0.07
19 | YCDGHASEYMMKCL [Phage-237] | 2.05 | 0.06
20 | YCDGHASEYMWKCL [Phage-286] | 1.94 | 0.06
21 | YCEGHSMEYMAKCL [Phage-295] | 1.92 | 0.07
22 | YCDGHSSEYMWKCL [Phage-244] | 2.03 | 0.06
23 | YCQGHMPEYMDKCL [Phage-231] | 2.05 | 0.07
24 | YCSGHLPEYMSKCL [Phage-245] | 2.03 | 0.09
25 | YCEGHLPEYMSKCL [Phage-181] | 2.15 | 0.07
26 | YCSGHLPEYMEKCL [Phage-210] | 2.09 | 0.09
27 | YCDGHAQEFMSKCL [Phage-218] | 2.07 | 0.12
28 | YCAGHTQEYMSKCL [Phage-201] | 2.1 | 0.05

Row | Binder | Anti-CD28 Fab signal [1] | Anti-CD28 Fab signal in the presence of CD28 [2]
29 | YCEGHSLEYIGKCL [Phage-186] | 2.14 | 0.06
30 | YCDGHLPVYMAKCL [Phage-195] | 2.11 | 0.09
31 | YCDGHLPAYMAKCL [Phage-222] | 2.06 | 0.12
32 | YCAGHSPEYMGKCM [Phage-209] | 2.09 | 0.06
33 | YCEGHAPQYIQKCL [Phage-220] | 2.07 | 0.07
34 | YCLGHAPQYIQKCL [Phage-243] | 2.04 | 0.14
35 | YCDGHAIEYMQKCL [Phage-229] | 2.05 | 0.07
36 | YCEGHAPEYMYKCL [Phage-235] | 2.05 | 0.07
37 | YCDGHLEEYMAKCL [Phage-198] | 2.11 | 0.09
38 | YCDGHVPQYMAKCL [Phage-203] | 2.1 | 0.07
39 | YCAGHLPEHIGKCL [Phage-207] | 2.09 | 0.07
40 | YCDGHAPEYVMKCL [Phage-232] | 2.05 | 0.1
41 | YCEGHLPQYIPKCL [Phage-193] | 2.12 | 0.07
42 | YCMGHSEEYMQKCL [Phage-196] | 2.11 | 0.07
43 | YCEGHSDEYMLKCL [Phage-223] | 2.06 | 0.07
44 | YCDGHSAQYMHKCL [Phage-234] | 2.05 | 0.06
45 | YCDGHELRYMAKCL [Phage-221] | 2.07 | 0.07
46 | YCDGHIPIYMSKCL [Phage-189] | 2.13 | 0.08
47 | YCDGHSPIYMSKCL [Phage-260] | 2 | 0.09
48 | YCDGHLGIYMWKCL [Phage-183] | 2.14 | 0.08
49 | YCDGHLGIYMTKCL [Phage-268] | 1.98 | 0.08
50 | YCEGHSPEYMSHCF [Phage-216] | 2.08 | 0.09
51 | YCAGHLPQYMEKCM [Phage-206] | 2.09 | 0.08
52 | YCEGHSPQYMQKCL [Phage-202] | 2.1 | 0.06
53 | YCEGHSPQYMSKCL [Phage-241] | 2.04 | 0.07
54 | YCAGHLEIYMQKCL [Phage-211] | 2.09 | 0.08
55 | YCEGHLPIYMDKCL [Phage-228] | 2.06 | 0.08
